System: eYFP under the control of the lactose operator (lacO)
Assay: in vivo dose-response curves of LacI variants to IPTG measured with flow cytometry (eYFP output), fit to the Hill equation
Format: cell-based, E. coli
Settings: IPTG dose-response, Hill fit of cytometry data
Protocol: Dose-response curves were measured with flow cytometry using E. coli MG1655Δlac transformed with variants of the pVER plasmid, described previously. The plasmid contained different variants of the lacI coding DNA sequence (CDS), as described in the text, and an expression cassette with enhanced yellow fluorescent protein (eYFP) under the control of the lactose operator (lacO). The lacI CDS was verified with Sanger sequencing for each variant.
All cultures were grown in a rich M9 media (3 g/L KH2PO4, 6.78 g/L Na2HPO4, 0.5 g/L NaCl, 1 g/L NH4Cl, 0.1 mmol/L CaCl2, 2 mmol/L MgSO4, 4% glycerol, and 20 g/L casamino acids) supplemented with 50 μg/mL kanamycin.
For flow cytometry measurements, E. coli cultures were grown in a laboratory automation system that included an automated liquid handler (Hamilton, STAR), an automated plate sealer (4titude, a4S), an automated de-sealer (Brooks, XPeel), and two multi-mode plate readers (BioTek, Neo2SM).
Cultures were grown in clear polystyrene 96-well plates with 1.1 mL square wells (4titude, 4ti-0255). The culture volume per well was 0.5 mL. Before incubation, each 96-well growth plate was sealed by the automated plate sealer with a gas permeable membrane (4titude, 4ti-0598). Growth plates were incubated in one of the multi-mode plate readers at 37°C with a 1°C gradient applied from the bottom to the top of the incubation chamber to minimize condensation on the inside of the membrane. The plate readers were set for double-orbital shaking at 807 cycles per minute. Optical density at 600 nm (OD600) was measured every 5 minutes during incubation, with continuous shaking applied between measurements (optical density at 700 nm and YFP fluorescence were also measured every 5 minutes). After incubation, the automated de-sealer was used to remove the gas-permeable membrane from each 96-well plate to enable automated passaging of cultures and sample preparation for flow cytometry measurements.
For each measurement, starter cultures were prepared from glycerol freezer stock in 5 mL of rich M9 media in a 14 mL snap-cap culture tubes. Starter cultures were incubated at 37°C with orbital shaking at 300 rpm for between 4 h and 24 h prior to loading the automation system. The automation system then prepared 96-well growth plates, sealed and de-sealed the growth plates, incubated the growth plates, and prepared flow cytometry sample plates. The automated culture protocol consisted of the following steps: […]

B1: pVER-IPTG-WT(L56M/D130E): LacI variant: L56M D130E (protein, UniProt P03023 1-360, looked up, variant L56M D130E)
Lactose operon repressor: MKPVTLYDVAEYAGVSYQTVSRVVNQASHVSAKTREKVEAAMAELNYIPNRVAQQMAGKQSLLIGVATSSLALHAPSQIVAAIKSRADQLGASVVVSMVERSGVEACKAAVHNLLAQRVSGLIINYPLDEQDAIAVEAACTNVPALFLDVSDQTPINSIIFSHEDGTRLGVEHLVALGHQQIALLAGPLSSVSARLRLAGWHKYLTRNQIQPIAEREGDWSAMSGFQQTMQMLNEGIVPTAMLVANDQMALGAMRAITESGLRVGADISVVGYDDTEDSSCYIPPLTTIKQDFRLLGQTSVDRLLQLSQGQAVKGNQLLPVSLVKRKTTLAPNTQTASPRALADSLMQLARQVSRLESGQ
- n: the Hill coefficient: 1.42

Reference: article PMC10057847, “Precision engineering of biological function with large-scale measurements and machine learning” (PLOS ONE, 2023)
